The values that follow come from publication PMC6158717.

One series has as its target TGIF1-HD R167A/R168A (Homo sapiens, UniProt Q15583 161-250, R167A;R168A). Kind of series: X-ray 3.25 A.
Another series has as its target TGIF1-HD (160-250) (Homo sapiens, UniProt Q15583 160-250). The series is described as follows: ITC. A general note: Isothermal titration calorimetry measures the heat released or taken up as one component is titrated into another.
Another series concerns the target TGIF1-HD (171-250) (Homo sapiens, UniProt Q15583 171-250). Kind of series: ITC.

Sequence of TGIF1-HD (171-250) (Q15583 171-250): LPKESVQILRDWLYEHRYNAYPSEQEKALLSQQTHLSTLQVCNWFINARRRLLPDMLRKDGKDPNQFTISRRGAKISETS
Sequence of TGIF1-HD R167A/R168A (Q15583 161-250 R167A/R168A): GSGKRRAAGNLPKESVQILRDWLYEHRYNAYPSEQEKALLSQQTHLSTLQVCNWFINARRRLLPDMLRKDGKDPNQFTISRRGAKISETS
Sequence of TGIF1-HD (160-250) (Q15583 160-250): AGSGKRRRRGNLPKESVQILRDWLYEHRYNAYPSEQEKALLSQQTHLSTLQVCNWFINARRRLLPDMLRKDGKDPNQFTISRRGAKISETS

B1: canonical TGACA palindrome 16mer (dsDNA)
DNA 1: ATTGACAGCTGTCAAT
DNA 2: ATTGACAGCTGTCAAT
By Kd is commonly meant the free concentration of one partner at which half of the binding sites on the other are occupied at equilibrium, for simple one-to-one binding. For B1, the binding result in the series with TGIF1-HD R167A/R168A is recorded as “binds”. The dissociation constant Kd with TGIF1-HD (160-250) is 170 ± 20 nM; with TGIF1-HD (171-250), 728.1 ± 3 nM.
